A word on the stoichiometry N: it is the number of molecules, sites or subunits per partner or assembly.

The test deals with HIV-1 clade C 96ZM651 gp140 Env trimer (HIV-1 clade C isolate 96ZM651). In words: native gel or EMSA. (In general: A gel shift assay detects complexes by their altered migration in electrophoresis.)

The substance “HIV-1 clade C 96ZM651 gp140 Env trimer (domain or fragment)” displayed a stoichiometry N of 3.

The values are drawn from article PMC6930178.
